{"source": "paper PMC3212559", "about": "“Large-Scale Protein-Protein Interaction Analysis in Arabidopsis Mesophyll Protoplasts by Split Firefly Luciferase Complementation” (PLoS ONE, 2011)", "molecular_target": "T1, C-terminal domain (CTD) of ARF5-FLucC (Arabidopsis, UniProt P93024 793-902)", "T1 construct": "In the ARF-ARF tests the same CTD stood both as ARFCTD-FLucC and as ARFCTD-FLucN; one molecule for both; also called ARF5CTD-FLucC; auxin response factor 5; source: Arabidopsis mesophyll protoplasts, transfected, in living cells (SFLC) and in lysate (co-IP); not shown: FLucC (firefly luciferase aa 394-550)", "T1 sequence (looked up)": "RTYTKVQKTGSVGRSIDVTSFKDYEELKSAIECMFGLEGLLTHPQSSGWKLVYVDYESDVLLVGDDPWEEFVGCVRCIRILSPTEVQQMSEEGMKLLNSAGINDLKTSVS", "assay": "split reporter (BiFC, NanoBiT); SFLC in living Arabidopsis mesophyll protoplasts: Aux/IAA-FLucN or MYB30-FLucN co-expressed with ARFCTD-FLucC or Aux/IAA-FLucC for 6 hr; 10 µg of each construct, 2×10^4 cells, 96-well plate, D-luciferin; relative activity standardised against ARF5CTD-FLucC + IAA28-FLucN", "settings": "partners not purified", "data": [{"binder": "IAA28-FLucN (natural protein, Arabidopsis, UniProt Q9XFM0 1-175, looked up, Arabidopsis transcription repressor IAA28; also called Aux/IAA-FLucN; source: Arabidopsis mesophyll protoplasts, transfected, in living cells; not shown: FLucN (firefly luciferase aa 1-398)) MEEEKRLELRLAPPCHQFTSNNNINGSKQKSSTKETSFLSNNRVEVAPVVGWPPVRSSRRNLTAQLKEEMKKKESDEEKELYVKINMEGVPIGRKVNLSAYNNYQQLSHAVDQLFSKKDSWDLNRQYTLVYEDTEGDKVLVGDVPWEMFVSTVKRLHVLKTSHAFSLSPRKHGKE", "values": [{"measurement": "restored luciferase activity, fold over the negative control MYB30-FLucN + ARF5CTD-FLucC", "value": "~350", "unit": "fold"}]}]}
